Where no end group is shown, it is not given here.
T1: wild-type rat NK2R receptor of tachykinins (construct pCEP4-NK2R), expressed on HEK 293 cells (rat, UniProt P16610 1-390)
T1 construct: whole, on cells; Stably expressed in HEK 293 cells; also called NK2R-WT; NK2R WT
T1 sequence (looked up): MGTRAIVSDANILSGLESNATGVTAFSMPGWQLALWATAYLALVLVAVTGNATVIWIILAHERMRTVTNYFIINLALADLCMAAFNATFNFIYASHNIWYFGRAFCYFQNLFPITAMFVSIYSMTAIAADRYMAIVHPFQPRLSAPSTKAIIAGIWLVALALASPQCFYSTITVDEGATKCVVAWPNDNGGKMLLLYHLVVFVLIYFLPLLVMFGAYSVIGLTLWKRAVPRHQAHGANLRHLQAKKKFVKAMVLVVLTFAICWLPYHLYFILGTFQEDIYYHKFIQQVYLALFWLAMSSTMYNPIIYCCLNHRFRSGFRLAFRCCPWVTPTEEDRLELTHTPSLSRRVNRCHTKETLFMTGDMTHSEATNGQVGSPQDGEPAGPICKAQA


Tests used:
[1] = molecular target: fluorescent receptor NK2R-RF1 (construct pCEP4-NK2R-RF1): EGFP fused between the alpha7 signal peptide and the amino-terminal end of the rat NK2R receptor, expressed on HEK 293 cells (Aequorea victoria; rat) (UniProt P16610); experiment: displacement of 3H SR 48968 on HEK 293 cells expressing NK2R-RF1, filtration
[2] = molecular target: wild-type rat NK2R receptor of tachykinins (construct pCEP4-NK2R), expressed on HEK 293 cells (rat) (UniProt P16610); experiment: displacement of 3H SR 48968 on HEK 293 cells expressing wild-type NK2R, filtration
[3] = molecular target: fluorescent receptor NK2R-RF1 (construct pCEP4-NK2R-RF1): EGFP fused between the alpha7 signal peptide and the amino-terminal end of the rat NK2R receptor, expressed on HEK 293 cells (Aequorea victoria; rat) (UniProt P16610); experiment: displacement of 3H SR 48968 on HEK 293 cells expressing NK2R-RF1, filtration (FIG. 8b)
[4] = molecular target: fluorescent receptor NK2R-RF1 (construct pCEP4-NK2R-RF1): EGFP fused between the alpha7 signal peptide and the amino-terminal end of the rat NK2R receptor, expressed on HEK 293 cells (Aequorea victoria; rat) (UniProt P16610); experiment: FRET saturation on cells expressing NK2R-RF1, 0 to 256 nM NKA BO I
[5] = molecular target: T1, wild-type rat NK2R receptor of …; experiment: displacement of 3H SR 48968 on HEK 293 cells expressing NK2R-WT, filtration (FIG. 8a)
Description: The incubation is carried out for one hour at 4° C. Filtration is carried out at the end of incubation, as described in 3b).

[6] = molecular target: fluorescent receptor NK2R-RF1 (construct pCEP4-NK2R-RF1): EGFP fused between the alpha7 signal peptide and the amino-terminal end of the rat NK2R receptor, expressed on HEK 293 cells (Aequorea victoria; rat) (UniProt P16610); experiment: FRET saturation: amplitude of EGFP fluorescence extinction against NKA BO I concentration, cells expressing NK2R-RF1 (FIG. 13)

Molecule	Ki [1] [nM]	Ki [2] [nM]	Ki [3] [nM]	Kd [4] [nM]	Ki [5] [nM]	Kd [6] [nM]
MEN 10,376 (Bachem) (peptide)	61	53				
neurokinin A (from UniProt P20366 98-107) (peptide)			2.1			
HKTDSFVGLM (peptide, UniProt P20366 98-107, looked up, also: BODIPY 530/550 IA label, site not given here, mature; HPLC-purified reaction product of NKA with BODIPY 530/550 IA; also called NKA BO 1; NKA-Bodipy derivative) [NKA BO I (neurokinin A labeled with BODIPY 530/550 IA)]			16.1	20 to 30	16.1	24

— patent US20060275828A1 (CENTRE NATIONAL DE LA RECHERCHE SCIENTIFIQUE, published 2006)
